Among the data in article PMC3264736 are Kd values, retold here.

The series concerns the target Pitx2 homeodomain wild-type (UniProt Q99697 85-144). As to the kind of experiment: ITC. On the technique in general: In ITC the heat of successive injections is recorded.

B1: TAATCC consensus DNA (dsDNA)
DNA 1: GCTCTAATCCCCG
DNA 2: CGGGGATTAGAGC
B1 registered a Kd of 66 nM. This counts as double-digit nanomolar.

As usually defined, the Kd is the concentration at which binding is half-saturated. A high value points to a looser complex.
